In US7749976B2, “Isolated PTPMT1 protein which mediates insulin production and uses thereof” (The Regents of the University of California, priority 2005, dated 2010):
Marks after values point to notes of the source that are not given here.

T1: PLIP (Mus musculus, UniProt Q66GT5)
T1 construct: ligating a PCR product encoding full-length PLIP; made in house; host or cells: Escherichia coli BL21 (DE3) CodonPlus RIL
T1 sequence (Q66GT5 32-193): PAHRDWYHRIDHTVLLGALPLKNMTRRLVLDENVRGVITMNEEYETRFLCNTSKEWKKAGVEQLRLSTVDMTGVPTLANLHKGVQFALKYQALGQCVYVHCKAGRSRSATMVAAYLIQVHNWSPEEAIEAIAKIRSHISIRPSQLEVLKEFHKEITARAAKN

T2: TC-PTP (Homo sapiens, UniProt P17706)
T2 sequence (P17706 1-415): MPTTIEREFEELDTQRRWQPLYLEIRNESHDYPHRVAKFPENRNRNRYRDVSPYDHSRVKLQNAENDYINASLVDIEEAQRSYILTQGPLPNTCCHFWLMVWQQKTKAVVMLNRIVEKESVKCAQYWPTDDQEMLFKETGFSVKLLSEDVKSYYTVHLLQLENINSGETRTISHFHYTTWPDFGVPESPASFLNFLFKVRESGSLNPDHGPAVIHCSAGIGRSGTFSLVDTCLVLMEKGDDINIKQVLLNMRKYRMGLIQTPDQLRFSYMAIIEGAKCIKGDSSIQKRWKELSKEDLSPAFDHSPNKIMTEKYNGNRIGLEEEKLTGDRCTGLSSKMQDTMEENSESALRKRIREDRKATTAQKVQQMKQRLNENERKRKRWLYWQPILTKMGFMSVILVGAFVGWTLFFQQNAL

T3: MTM1 (Homo sapiens, UniProt Q13496)
T3 sequence (Q13496 1-603): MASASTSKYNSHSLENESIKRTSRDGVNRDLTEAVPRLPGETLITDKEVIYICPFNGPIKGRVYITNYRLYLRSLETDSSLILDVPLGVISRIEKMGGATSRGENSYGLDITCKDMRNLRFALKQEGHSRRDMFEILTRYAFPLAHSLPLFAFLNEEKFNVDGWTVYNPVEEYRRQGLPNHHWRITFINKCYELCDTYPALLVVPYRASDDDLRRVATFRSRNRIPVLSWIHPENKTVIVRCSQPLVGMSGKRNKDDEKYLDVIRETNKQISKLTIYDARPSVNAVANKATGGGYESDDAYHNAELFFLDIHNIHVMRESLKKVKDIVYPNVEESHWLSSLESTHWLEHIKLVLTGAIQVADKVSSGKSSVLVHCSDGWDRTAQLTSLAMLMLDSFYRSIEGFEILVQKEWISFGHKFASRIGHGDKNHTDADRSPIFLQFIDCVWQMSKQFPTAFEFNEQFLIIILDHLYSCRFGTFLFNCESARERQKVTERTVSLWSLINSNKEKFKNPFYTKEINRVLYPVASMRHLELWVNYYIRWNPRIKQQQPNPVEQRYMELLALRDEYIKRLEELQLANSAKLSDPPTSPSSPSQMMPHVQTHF

B1: myelin basic protein: radiolabeled myelin basic protein (protein, UniProt P02686 1-304, looked up)
Myelin basic protein: MGNHAGKRELNAEKASTNSETNRGESEKKRNLGELSRTTSEDNEVFGEADANQNNGTSSQDTAVTDSKRTADPKNAWQDAHPADPGSRPHLIRLFSRDAPGREDNTFKDRPSESDELQTIQEDSAATSESLDVMASQKRPSQRHGSKYLATASTMDHARHGFLPRHRDTGILDSIGRFFGGDRGAPKRGSGKDSHHPARTAHYGSLPQKSHGRTQDENPVVHFFKNIVTPRTPPPSQGKGRGLSLSRFSWGAEGQRPGFGYGGRASDYKSAHKGFKGVDAQGTLSKIFKLGGRDSRSGSPMARR
modifications: radiolabeled
B2: MyBP Ser(P)/Tyr(P): radiolabeled myelin basic protein substrate (protein, UniProt P02686 1-304, looked up)
Myelin basic protein: B1 Myelin basic protein
modifications: radiolabeled, Ser/Tyr-phosphorylated
notes: radiolabeled myelin basic protein substrate
B3: MyBP Tyr(P): radiolabeled myelin basic protein substrate, tyrosine phosphorylated (protein, UniProt P02686 1-304, looked up)
Myelin basic protein: B1 Myelin basic protein
modifications: radiolabeled, tyrosine-phosphorylated

Tests used:
PLIP = molecular target: T1, PLIP; assay: Phosphatase activity of various PTPs (malachite green / radiolabeled protein substrates); format: biochemical, murine; conditions: for Phosphatase activity, PLIP: mole of phosphate released/min/mol of enzyme, pH 5.5, triplicate, this study
Description: Recombinant murine PLIP was expressed as a fusion protein with N-terminal GST and 6-His tags in Escherichia coli BL21 (DE3) CodonPlus RIL cells (Stratagene). The expression construct was assembled by ligating a PCR product encoding full-length PLIP into the 5′-EcoR1 and 3′-Xho1 sites of a modified pET41 vector (pSJ6), kindly provided by Zhaohui Xu (University of Michigan). […] Cultures were then chilled on ice for 20 min, supplied with fresh antibiotics, induced with IPTG to a final concentration of 0.4 mM, and allowed to grow overnight @ 25° C., as previously described (Taylor and Dixon, 2003). All subsequent steps were performed @ 4° C. The cultures were pelleted by spinning @ 6000 rpm for 10 min in a Sorvall GSA rotor, resuspended in 30 ml of buffer (20 mM Imidazole, 50 mM Tris pH 7.4, 300 mM NaCl) with Complete protease inhibitors (Roche), and lysed via French Press. Insoluble material was removed by centrifugation @ 50,000 rpm for 30 min. The fusion protein was purified from the soluble supernatant first over Ni^2+ agarose beads, and then by successive separation on Superdex 75 and 200 gel filtration columns (Amersham). The resulting protein was concentrated, flash frozen in liquid nitrogen, and stored @−80° C. in 25% glycerol, 2 mM EDTA, and 2 mM DTT until use.
Di-C8 phosphoinosites (Echelon) and Dioleoyl-phosphatidylserine (Sigma) were dried together in a Speed Vac and resuspended via sonication in 18 μl assay buffer (100 mM sodium acetate, 50 mM bis-Tris, 50 mM Tris (pH 5.5), 10 mM DTT) to final concentrations of 50 μM and 500 μM, respectively. After prewarming at 37° C. for 5 min, reactions were initiated by the addition of 20 to 2000 ng of GST-PLIP diluted in assay buffer containing 1.0 mg/ml gelatin. Reactions were quenched after 5-30 min by the addition of 20 μl 0.1 M N-ethylmaleimide, and spun at 18,000×g for 10 min to sediment the lipid aggregates. […] Samples were allowed to sit for 40 minutes for color development before measuring absorbance at 620 nm. Inorganic phosphate release was quantitated by comparison to a standard curve of KH2PO4 in dH2O. […]

TC-PTP = molecular target: T2, TC-PTP; assay: as above; format: biochemical; conditions: mole of phosphate released/min/mol of enzyme; triplicate; this study
Description: (§1) Di-C8 phosphoinosites (Echelon) and Dioleoyl-phosphatidylserine (Sigma) were dried together in a Speed Vac and resuspended via sonication in 18 μl assay buffer (100 mM sodium acetate, 50 mM bis-Tris, 50 mM Tris (pH 5.5), 10 mM DTT) to final concentrations of 50 μM and 500 μM, respectively. After prewarming at 37° C. for 5 min, reactions were initiated by the addition of 20 to 2000 ng of GST-PLIP diluted in assay buffer containing 1.0 mg/ml gelatin. Reactions were quenched after 5-30 min by the addition of 20 μl 0.1 M N-ethylmaleimide, and spun at 18,000×g for 10 min to sediment the lipid aggregates. Twenty-five microliters of the supernatant was added to 50 μl of malachite green reagent and vortexed. Samples were allowed to sit for 40 minutes for color development before measuring absorbance at 620 nm. Inorganic phosphate release was quantitated by comparison to a standard curve of KH2PO4 in dH2O.
(§2) Assays using radiolabeled protein substrates or pNPP were carried in assay buffer containing 50 mM sodium acetate, 25 mM bis-Tris, 25 mM Tris, and 2 mM DTT at pH 5.5 (GST-PLIP), 6.0 (VHR), or 7.0 (TC-PTP), at 30° C. Radiolabeled proteins and pNPP were prepared and assayed as previously reported (Taylor et al., 1997).
(§3) Due to the only recent emergence of PI(5)P as a known signaling molecule, few PTP's have been tested for activity against this substrate. To ensure that activity against PI(5)P is not a common feature of PTP's, membrane-bound di-C8 PI(5)P was assayed using a known tyrosine-specific PTP (TC-PTP) and a known dual-specific PTP (VHR) (Ishibashi et al., 1992; Zhao et al., 1992; Ruzzene et al., 1993; Zhou et al., 1994; Denu et al., 1995).

VHR = VHR (Homo sapiens, UniProt P51452); assay: as above; format: biochemical; conditions: mole of phosphate released/min/mol of enzyme; triplicate; this study
Description: as §1, §2, §3

PTEN = PTEN (Homo sapiens, UniProt P60484); conditions: protein substrates; Ref. 43; cited from earlier work
MTM1 = molecular target: T3, MTM1; conditions: Ref. 32; cited from earlier work

Sequence of PTEN (P60484 whole entry, species assumed): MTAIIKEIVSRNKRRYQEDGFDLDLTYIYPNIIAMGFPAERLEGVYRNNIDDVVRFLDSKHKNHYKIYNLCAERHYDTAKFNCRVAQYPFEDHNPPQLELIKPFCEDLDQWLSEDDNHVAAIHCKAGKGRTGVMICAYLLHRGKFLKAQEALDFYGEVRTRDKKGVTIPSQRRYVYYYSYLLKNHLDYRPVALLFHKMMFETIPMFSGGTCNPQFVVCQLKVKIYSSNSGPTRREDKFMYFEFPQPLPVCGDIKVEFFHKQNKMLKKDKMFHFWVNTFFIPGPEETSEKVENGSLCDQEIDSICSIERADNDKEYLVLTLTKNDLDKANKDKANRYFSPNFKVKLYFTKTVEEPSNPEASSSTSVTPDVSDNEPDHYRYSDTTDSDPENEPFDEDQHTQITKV
Sequence of VHR (P51452 whole entry, species assumed): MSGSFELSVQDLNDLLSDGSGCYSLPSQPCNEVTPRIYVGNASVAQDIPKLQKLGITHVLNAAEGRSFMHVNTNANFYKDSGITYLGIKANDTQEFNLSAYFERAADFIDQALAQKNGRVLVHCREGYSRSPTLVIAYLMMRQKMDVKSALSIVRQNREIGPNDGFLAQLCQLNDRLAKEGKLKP

Row | Molecule | PLIP activity, fold lower than against PI(5)P (PLIP; radiolabeled protein substrates) | Phosphatase activity, TC-PTP (TC-PTP) | Phosphatase activity, VHR (VHR) | Phosphatase activity, PLIP (PLIP) | Phosphatase activity, PTEN (PTEN) | Phosphatase activity, MTM1 (MTM1)
1 | B1 | approximately 1000 fold |  |  |  |  | 
2 | B2 |  | ~0.0^b mol/(min mol) | ~0.0^b mol/(min mol) | ~0.0^b mol/(min mol) | ~0.0^c mol/(min mol) | ~0.0^d mol/(min mol)
3 | B3 |  | 195^b mol/(min mol) | 0.5^b mol/(min mol) | 0.1^b mol/(min mol) | ~0.0^c mol/(min mol) | ~0.0^d mol/(min mol)
